From PMC8571288 come the findings set out here.

Series [1] addresses CST complex (CTC1-STN1-TEN1) (Homo sapiens, UniProt Q2NKJ3;Q9H668;Q86WV5 1-1217;1-368;1-123). The series is described as follows: pull-down; RPA-coated DNA, 50 mM KCl; smFRET: 25 mM Tris-HCl pH 7.5, 0.5 mM EDTA, 10% glycerol, 50 or 150 mM KCl (temperature not stated); pull-down: 35 mM Tris-HCl pH 7.5, 10% glycerol, 0.01% Igepal, 1 mM 2-ME, 1 mM ATP, 2.5 mM MgCl2, 50 or 150 mM KCl, 37 C; EMSA: 35 mM Tris-HCl pH 7.5, 1 mM DTT, 2.5 mM MgCl2, 100 ng/uL BSA, 50 mM KCl, 37 C. Conditions: protein: recombinant; tags: FLAG-CTC1, TEN1-His6; copies: 1;1;1; label: 5' biotin, on streptavidin beads. (In general: Mobility shift assays separate free from complexed probe on a gel.)

For another series, the target named is RPA complex (Homo sapiens, UniProt P27694;P15927;P35244 1-616;1-270;1-121). The series is described as follows: pull-down; 50 mM KCl; unchanged by CST; smFRET: 25 mM Tris-HCl pH 7.5, 0.5 mM EDTA, 10% glycerol, 50 or 150 mM KCl (temperature not stated); pull-down: 35 mM Tris-HCl pH 7.5, 10% glycerol, 0.01% Igepal, 1 mM 2-ME, 1 mM ATP, 2.5 mM MgCl2, 50 or 150 mM KCl, 37 C; EMSA: 35 mM Tris-HCl pH 7.5, 1 mM DTT, 2.5 mM MgCl2, 100 ng/uL BSA, 50 mM KCl, 37 C. The note with it: protein: recombinant; copies: 1;1;1; label: 5' biotin, on streptavidin beads.
Sequence of RPA complex (P27694 whole entry, chain 1 of 3): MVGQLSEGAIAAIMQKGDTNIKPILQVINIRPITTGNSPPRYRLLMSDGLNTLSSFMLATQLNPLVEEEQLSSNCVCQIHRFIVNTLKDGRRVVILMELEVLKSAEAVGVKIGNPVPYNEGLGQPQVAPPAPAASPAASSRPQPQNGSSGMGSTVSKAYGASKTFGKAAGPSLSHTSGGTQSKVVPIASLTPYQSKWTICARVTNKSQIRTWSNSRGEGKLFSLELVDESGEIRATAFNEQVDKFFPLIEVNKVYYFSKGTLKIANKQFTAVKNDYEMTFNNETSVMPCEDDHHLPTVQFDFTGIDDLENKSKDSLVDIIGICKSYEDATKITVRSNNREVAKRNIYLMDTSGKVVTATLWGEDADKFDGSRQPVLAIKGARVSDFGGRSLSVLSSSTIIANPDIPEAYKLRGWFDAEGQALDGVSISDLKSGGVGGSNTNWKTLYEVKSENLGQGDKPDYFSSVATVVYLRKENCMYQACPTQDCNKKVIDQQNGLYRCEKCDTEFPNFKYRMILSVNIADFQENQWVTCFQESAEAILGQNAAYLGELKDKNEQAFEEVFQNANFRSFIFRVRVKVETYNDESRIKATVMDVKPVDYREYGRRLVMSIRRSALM
Sequence of RPA complex (P15927 whole entry, chain 2 of 3): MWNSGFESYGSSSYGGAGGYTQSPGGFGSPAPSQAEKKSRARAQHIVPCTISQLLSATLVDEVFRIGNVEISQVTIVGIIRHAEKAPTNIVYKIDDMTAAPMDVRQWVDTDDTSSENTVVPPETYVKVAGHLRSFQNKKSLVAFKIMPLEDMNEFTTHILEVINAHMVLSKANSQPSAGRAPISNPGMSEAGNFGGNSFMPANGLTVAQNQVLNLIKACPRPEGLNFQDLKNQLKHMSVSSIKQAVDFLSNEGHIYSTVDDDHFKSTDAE
Sequence of RPA complex (P35244 whole entry, chain 3 of 3): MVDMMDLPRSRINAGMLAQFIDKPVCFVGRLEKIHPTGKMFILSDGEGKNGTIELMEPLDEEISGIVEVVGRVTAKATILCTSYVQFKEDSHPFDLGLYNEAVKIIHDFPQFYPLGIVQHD

Series [2] deals with T1, RAD51 (Homo sapiens, UniProt Q06609 1-339). The series is described as follows: pull-down; RPA-coated DNA plus CST; smFRET: 25 mM Tris-HCl pH 7.5, 0.5 mM EDTA, 10% glycerol, 50 or 150 mM KCl (temperature not stated); pull-down: 35 mM Tris-HCl pH 7.5, 10% glycerol, 0.01% Igepal, 1 mM 2-ME, 1 mM ATP, 2.5 mM MgCl2, 50 or 150 mM KCl, 37 C; EMSA: 35 mM Tris-HCl pH 7.5, 1 mM DTT, 2.5 mM MgCl2, 100 ng/uL BSA, 50 mM KCl, 37 C. Conditions: protein: recombinant; chain copies: 10; label: 5' biotin, on streptavidin beads.
T1 sequence (Q06609 whole entry): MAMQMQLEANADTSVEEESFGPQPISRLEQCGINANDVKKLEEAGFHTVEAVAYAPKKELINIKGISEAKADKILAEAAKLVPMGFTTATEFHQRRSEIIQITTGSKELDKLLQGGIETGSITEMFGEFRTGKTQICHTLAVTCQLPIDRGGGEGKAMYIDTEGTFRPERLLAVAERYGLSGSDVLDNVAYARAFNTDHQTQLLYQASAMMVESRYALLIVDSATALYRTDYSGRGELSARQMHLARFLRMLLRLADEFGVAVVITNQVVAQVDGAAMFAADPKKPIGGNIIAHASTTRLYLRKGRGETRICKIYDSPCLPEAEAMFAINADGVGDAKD

Series [3] concerns the target T1, RAD51. The series is described as follows: negative-stain EM; 150 mM KCl; naked DNA, median filament 96.41 nm; smFRET: 25 mM Tris-HCl pH 7.5, 0.5 mM EDTA, 10% glycerol, 50 or 150 mM KCl (temperature not stated); pull-down: 35 mM Tris-HCl pH 7.5, 10% glycerol, 0.01% Igepal, 1 mM 2-ME, 1 mM ATP, 2.5 mM MgCl2, 50 or 150 mM KCl, 37 C; EMSA: 35 mM Tris-HCl pH 7.5, 1 mM DTT, 2.5 mM MgCl2, 100 ng/uL BSA, 50 mM KCl, 37 C. The note with it: protein: recombinant; chain copies: 10.

Another series has as its target SNAP649-CST (Homo sapiens, UniProt Q2NKJ3;Q9H668;Q86WV5 1-1217;1-368;1-123). The series is described as follows: CoSMoS; EGFP-RPA-coated DNA, 50 mM KCl, 13.5 nM; smFRET: 25 mM Tris-HCl pH 7.5, 0.5 mM EDTA, 10% glycerol, 50 or 150 mM KCl (temperature not stated); pull-down: 35 mM Tris-HCl pH 7.5, 10% glycerol, 0.01% Igepal, 1 mM 2-ME, 1 mM ATP, 2.5 mM MgCl2, 50 or 150 mM KCl, 37 C; EMSA: 35 mM Tris-HCl pH 7.5, 1 mM DTT, 2.5 mM MgCl2, 100 ng/uL BSA, 50 mM KCl, 37 C. The note with it: protein: recombinant; tags: SNAP (SNAP-Surface 649 label); copies: 1;1;1; label: 5' Cy3 and 3' biotin on Oligo 10; 3' overhang 80 nt.

In a further series the target is EGFP-RPA (Homo sapiens, UniProt P27694;P15927;P35244 1-616;1-270;1-121). The series is described as follows: CoSMoS; 50 mM KCl, 10 nM; ~85% of DNA foci RPA-bound; 1-4 RPA per DNA; smFRET: 25 mM Tris-HCl pH 7.5, 0.5 mM EDTA, 10% glycerol, 50 or 150 mM KCl (temperature not stated); pull-down: 35 mM Tris-HCl pH 7.5, 10% glycerol, 0.01% Igepal, 1 mM 2-ME, 1 mM ATP, 2.5 mM MgCl2, 50 or 150 mM KCl, 37 C; EMSA: 35 mM Tris-HCl pH 7.5, 1 mM DTT, 2.5 mM MgCl2, 100 ng/uL BSA, 50 mM KCl, 37 C. Conditions: protein: recombinant; tags: EGFP; copies: 1;1;1; label: 5' Cy3 and 3' biotin on Oligo 10; 3' overhang 80 nt.
Sequence of EGFP-RPA (P27694 whole entry, chain 1 of 3): as the sequence (P27694 whole entry, chain 1 of 3) above
Sequence of EGFP-RPA (P15927 whole entry, chain 2 of 3): as the sequence (P15927 whole entry, chain 2 of 3) above
Sequence of EGFP-RPA (P35244 whole entry, chain 3 of 3): as the sequence (P35244 whole entry, chain 3 of 3) above

Sequence of SNAP649-CST (Q2NKJ3 whole entry, chain 1 of 3): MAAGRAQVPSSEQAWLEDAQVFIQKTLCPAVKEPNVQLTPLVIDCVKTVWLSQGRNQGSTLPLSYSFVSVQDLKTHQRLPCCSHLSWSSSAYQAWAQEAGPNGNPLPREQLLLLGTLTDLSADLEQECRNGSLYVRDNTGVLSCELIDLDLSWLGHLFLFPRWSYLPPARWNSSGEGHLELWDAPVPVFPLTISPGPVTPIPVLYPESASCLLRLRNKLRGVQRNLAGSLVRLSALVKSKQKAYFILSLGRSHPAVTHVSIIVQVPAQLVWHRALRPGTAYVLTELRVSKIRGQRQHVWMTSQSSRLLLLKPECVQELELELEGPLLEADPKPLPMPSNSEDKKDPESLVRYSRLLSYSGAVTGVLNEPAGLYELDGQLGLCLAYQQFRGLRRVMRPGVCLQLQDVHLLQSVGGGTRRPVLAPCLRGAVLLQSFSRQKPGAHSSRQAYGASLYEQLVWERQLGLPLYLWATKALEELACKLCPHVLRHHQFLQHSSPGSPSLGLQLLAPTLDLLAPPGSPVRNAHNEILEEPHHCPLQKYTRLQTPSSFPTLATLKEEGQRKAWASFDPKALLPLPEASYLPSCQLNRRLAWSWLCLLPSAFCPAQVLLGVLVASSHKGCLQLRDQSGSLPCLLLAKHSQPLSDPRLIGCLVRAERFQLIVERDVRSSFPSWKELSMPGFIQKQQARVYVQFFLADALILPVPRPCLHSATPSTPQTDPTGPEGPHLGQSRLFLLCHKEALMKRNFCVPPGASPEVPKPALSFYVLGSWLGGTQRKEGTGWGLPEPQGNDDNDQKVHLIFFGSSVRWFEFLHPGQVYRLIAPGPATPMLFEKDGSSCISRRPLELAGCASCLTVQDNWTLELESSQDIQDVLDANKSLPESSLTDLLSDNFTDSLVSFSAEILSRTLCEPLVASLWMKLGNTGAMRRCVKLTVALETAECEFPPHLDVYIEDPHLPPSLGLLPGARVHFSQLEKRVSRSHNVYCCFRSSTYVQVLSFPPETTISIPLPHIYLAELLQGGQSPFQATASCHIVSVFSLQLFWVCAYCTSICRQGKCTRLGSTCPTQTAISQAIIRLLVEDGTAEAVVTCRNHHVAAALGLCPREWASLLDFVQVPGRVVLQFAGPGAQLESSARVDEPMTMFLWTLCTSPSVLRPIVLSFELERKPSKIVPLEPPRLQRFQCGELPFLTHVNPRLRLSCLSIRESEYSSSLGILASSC
Sequence of SNAP649-CST (Q9H668 whole entry, chain 2 of 3): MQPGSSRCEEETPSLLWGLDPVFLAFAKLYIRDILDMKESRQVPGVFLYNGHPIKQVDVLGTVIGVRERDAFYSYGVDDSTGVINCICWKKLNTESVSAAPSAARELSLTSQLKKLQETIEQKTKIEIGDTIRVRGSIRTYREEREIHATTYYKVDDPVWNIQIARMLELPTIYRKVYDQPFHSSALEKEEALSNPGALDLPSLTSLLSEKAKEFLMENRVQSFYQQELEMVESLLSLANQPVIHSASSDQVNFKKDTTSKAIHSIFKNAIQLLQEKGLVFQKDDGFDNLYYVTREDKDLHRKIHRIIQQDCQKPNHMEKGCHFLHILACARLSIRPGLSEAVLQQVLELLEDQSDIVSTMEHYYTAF
Sequence of SNAP649-CST (Q86WV5 whole entry, chain 3 of 3): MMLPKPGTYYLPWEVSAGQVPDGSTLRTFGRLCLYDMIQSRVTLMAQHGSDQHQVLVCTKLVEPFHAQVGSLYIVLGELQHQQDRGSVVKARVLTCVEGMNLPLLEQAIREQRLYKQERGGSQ
Sequence of CST complex (CTC1-STN1-TEN1) (Q2NKJ3 whole entry, chain 1 of 3): as the sequence (Q2NKJ3 whole entry, chain 1 of 3) above
Sequence of CST complex (CTC1-STN1-TEN1) (Q9H668 whole entry, chain 2 of 3): as the sequence (Q9H668 whole entry, chain 2 of 3) above
Sequence of CST complex (CTC1-STN1-TEN1) (Q86WV5 whole entry, chain 3 of 3): as the sequence (Q86WV5 whole entry, chain 3 of 3) above

B1: 80-nt ssDNA, biotinylated Oligo 1 (ssDNA)
DNA: TTATGTTCATTTTTTATATCCTTTACTTTATTTTCTCTGTTTATTCATTTACTTATTTTGTATTATCCTTATCTTATTTA
Consider B1, for which the binding result (in series [1]; in the series with RPA complex; with RAD51 [2]) was “binds” in each case.

B2: 80-nt ssDNA Oligo 1 (ssDNA)
DNA: TTATGTTCATTTTTTATATCCTTTACTTTATTTTCTCTGTTTATTCATTTACTTATTTTGTATTATCCTTATCTTATTTA
As to B2, the binding result in the series with RAD51 [3] is reported as “binds”.

B3: 80-nt ssDNA overhang (Oligo 9+10) (mixed)
DNA 1: TGGCGACGGCAGCGAGGCTTATGTTCATTTTTTATATCCTTTACTTTATTTTCTCTGTTTATTCATTTACTTATTTTGTATTATCCTTATCTTATTTA
DNA 2: GCCTCGCTGCCGTCGCCA
With B3, the binding result in the series with SNAP649-CST and with EGFP-RPA was “binds” throughout.
